# B1: FtsA R286W (protein)
# chain: MIKATDRKLVVGLEIGTAKVAALVGEVLPDGMVNIIGVGSCPSRGMDKGGVNDLESVVKCVQRAIDQAELMADCQISSVYLALSGKHISCQNEIGMVPISEEEVTQEDVENVVHTAKSVRVRDEHRVLHVIPQEYAIDYQEGIKNPVGLSGVRMQAKVHLITCHNDMAKNIVKAVERCGLKVDQLIFAGLASSYSVLTEDERELGVCVVDIGGGTMDIAVYTGGALRHTKVIPYAGNVVTSDIAYAFGTPPSDAEAIKVRHGCALGSIVGKDESVEVPSVGGRPPWSLQRQTLAEVIEPRYTELLNLVNEEILQLQEKLRQQGVKHHLAAGIVLTGGAAQIEGLAACAQRVFHTQVRIGAPLNITGLTDYAQEPYYSTAVGLLHYGKESHLNGEAEVEKRVTASVGSWIKRLNSWLRKEF
# modifications: Cy3 or Cy5 at the N-terminus in the labelled form (labelled CLEPTGG peptide conjugated to the 5xGly tag by sortagging); unlabelled protein also used; left off: TwinStrep-SUMO, N-terminal, cleaved | 5x
# Assay: Diffusion coefficient (Dcoeff) of FtsA from FRAP
# Conditions: for Diffusion Coefficient, mean: Fig. 3j
# Source text: We could also use the data from these bleaching experiments to quantify the membrane-binding kinetics and diffusion of membrane-bound proteins by analysing the change of the fluorescence profile during recovery.
# Equimolar concentrations of Cy3- and Cy5-labelled FtsA, supplemented with 20% unlabelled FtsA were used to study FRET and FRAP. Five pre-bleach frames were acquired, followed by acceptor photobleaching of a rectangular ROI with 40% 641 nm laser power and a dwell size of 1 µs/pixel, 75% overlapping lines. The recovery of the signal or the increase in donor intensity were measured with either two frames or one frame per second.
# Bleaching the acceptor dye leads to an increase in the donor intensity, which can be used to quantify the Foerster Resonance energy transfer (FRET)[48]. FRET efficiency was quantified with E%=Ipost/Ipost+Ipre⋅100 , where Ipost is the intensity of the […] and Ipre is the […]. […] To extract the contribution of both processes, we adjusted a routine recently published by Gerganova et al.[33]. In short, the code provides the contribution of both modes of recovery by analysing the shape of the fluorescence recovery profile. […] Contribution of diffusion leads to a change of the slope of the outer borders of the bleached region (S4h right). Thus, by measuring the change of the slope of the border recovery, diffusion and simple on/off binding can be distinguished. We developed “FRAPdiff”, a graphical user interface, which uses the original fit routine by David Rutkowski. It can be used directly on.tiff movies with annotated bleach regions as ImageJ ROIs. In addition, we added optional bleach correction, user selectable projection axis (x or y), and optional mirroring of the recovery profiles, if bleaching was not symmetric. The original fit routine for estimating the recovery and diffusion dynamics can be found at https://github.com/davidmrutkowski/1DReflectingDiffusion. FRAPdiff is available at 10.5281/zenodo.6400639[49] under the GPLv3 open-source license.
molecule,measurement,setting,value
B1,"Diffusion Coefficient, mean",0.1 µM FtsA + N,7.25E-02 µm2/s
same,"Diffusion Coefficient, mean",0.1 µM FtsA + Z&N,2.31E-02 µm2/s
same,"Diffusion Coefficient, mean",0.1 µM FtsA + Z,5.72E-03 µm2/s
same,Diffusion Coefficient,"0.1µM FtsA alone, Mean, n=18 (WT), 6 (R286W)",0.0520
same,"Diffusion Coefficient, mean",0.1 µM FtsA alone,5.20E-02 µm2/s
same,Diffusion Coefficient,"0.1µM FtsA alone, replicate Exp.1",8.43E-02
same,Diffusion Coefficient,"0.1µM FtsA alone, replicate Exp.2",1.09E-02
same,Diffusion Coefficient,"0.1µM FtsA alone, replicate Exp.3",6.73E-03
same,Diffusion Coefficient,"0.1µM FtsA alone, replicate Exp.4",8.58E-02
same,Diffusion Coefficient,"0.1µM FtsA alone, replicate Exp.5",8.30E-02
same,Diffusion Coefficient,"0.1µM FtsA alone, replicate Exp.6",4.11E-02
same,Diffusion Coefficient,"0.1µM, + FtsN&Z, Mean, n=5 (WT), 3 (R286W)",0.0231
same,Diffusion Coefficient,"0.1µM, + FtsN&Z, replicate Exp.1",1.54E-02
same,Diffusion Coefficient,"0.1µM, + FtsN&Z, replicate Exp.2",3.28E-02
same,Diffusion Coefficient,"0.1µM, + FtsN&Z, replicate Exp.3",2.10E-02
same,Diffusion Coefficient,"0.1µM, + FtsN, Mean, n=5 (WT), 3 (R286W)",0.0725
same,Diffusion Coefficient,"0.1µM, + FtsN, replicate Exp.1",2.08E-01
same,Diffusion Coefficient,"0.1µM, + FtsN, replicate Exp.2",5.52E-03
same,Diffusion Coefficient,"0.1µM, + FtsN, replicate Exp.3",4.11E-03
same,Diffusion Coefficient,"0.1µM, + FtsZ, Mean, n=8 (WT), 4 (R286W)",0.0057
same,Diffusion Coefficient,"0.1µM, + FtsZ, replicate Exp.1",3.86E-04
same,Diffusion Coefficient,"0.1µM, + FtsZ, replicate Exp.2",2.70E-04
same,Diffusion Coefficient,"0.1µM, + FtsZ, replicate Exp.3",1.57E-02
same,Diffusion Coefficient,"0.1µM, + FtsZ, replicate Exp.4",6.48E-03
same,"Diffusion Coefficient, mean",0.2 µM FtsA + N,7.49E-02 µm2/s
same,"Diffusion Coefficient, mean",0.2 µM FtsA + Z&N,3.50E-02 µm2/s
same,"Diffusion Coefficient, mean",0.2 µM FtsA + Z,1.81E-02 µm2/s
same,Diffusion Coefficient,"0.2µM FtsA alone, Mean, n=24 (WT), 6 (R286W)",0.1536
same,"Diffusion Coefficient, mean",0.2 µM FtsA alone,1.54E-01 µm2/s
same,Diffusion Coefficient,"0.2µM FtsA alone, replicate Exp.1",5.97E-01
same,Diffusion Coefficient,"0.2µM FtsA alone, replicate Exp.2",7.31E-02
same,Diffusion Coefficient,"0.2µM FtsA alone, replicate Exp.3",7.49E-02
same,Diffusion Coefficient,"0.2µM FtsA alone, replicate Exp.4",3.26E-02
same,Diffusion Coefficient,"0.2µM FtsA alone, replicate Exp.5",1.37E-01
same,Diffusion Coefficient,"0.2µM FtsA alone, replicate Exp.6",6.07E-03
same,Diffusion Coefficient,"0.2µM, + FtsN&Z, Mean, n=8 (WT), 6 (R286W)",0.0350
same,Diffusion Coefficient,"0.2µM, + FtsN&Z, replicate Exp.1",5.92E-02
same,Diffusion Coefficient,"0.2µM, + FtsN&Z, replicate Exp.2",5.62E-02
same,Diffusion Coefficient,"0.2µM, + FtsN&Z, replicate Exp.3",3.73E-02
same,Diffusion Coefficient,"0.2µM, + FtsN&Z, replicate Exp.4",2.25E-02
same,Diffusion Coefficient,"0.2µM, + FtsN&Z, replicate Exp.5",3.21E-02
same,Diffusion Coefficient,"0.2µM, + FtsN&Z, replicate Exp.6",2.82E-03
same,Diffusion Coefficient,"0.2µM, + FtsN, Mean, n=7 (WT), 4 (R286W)",0.0749
same,Diffusion Coefficient,"0.2µM, + FtsN, replicate Exp.1",3.41E-02
same,Diffusion Coefficient,"0.2µM, + FtsN, replicate Exp.2",6.37E-02
same,Diffusion Coefficient,"0.2µM, + FtsN, replicate Exp.3",1.01E-01
same,Diffusion Coefficient,"0.2µM, + FtsN, replicate Exp.4",1.01E-01
same,Diffusion Coefficient,"0.2µM, + FtsZ, Mean, n=7 (WT), 6 (R286W)",0.0181
same,Diffusion Coefficient,"0.2µM, + FtsZ, replicate Exp.1",2.61E-02
same,Diffusion Coefficient,"0.2µM, + FtsZ, replicate Exp.2",3.49E-02
same,Diffusion Coefficient,"0.2µM, + FtsZ, replicate Exp.3",2.40E-02
same,Diffusion Coefficient,"0.2µM, + FtsZ, replicate Exp.4",1.48E-02
same,Diffusion Coefficient,"0.2µM, + FtsZ, replicate Exp.5",2.86E-04
same,Diffusion Coefficient,"0.2µM, + FtsZ, replicate Exp.6",8.41E-03
same,"Diffusion Coefficient, mean",0.4 µM FtsA + N,4.57E-02 µm2/s
same,"Diffusion Coefficient, mean",0.4 µM FtsA + Z&N,7.88E-03 µm2/s
same,"Diffusion Coefficient, mean",0.4 µM FtsA + Z,3.05E-02 µm2/s
same,Diffusion Coefficient,"0.4µM FtsA alone, Mean, n=18 (WT), 9 (R286W)",0.1352
same,"Diffusion Coefficient, mean",0.4 µM FtsA alone,1.35E-01 µm2/s
same,Diffusion Coefficient,"0.4µM FtsA alone, replicate Exp.1",1.81E-01
same,Diffusion Coefficient,"0.4µM FtsA alone, replicate Exp.2",2.05E-02
same,Diffusion Coefficient,"0.4µM FtsA alone, replicate Exp.3",2.71E-02
same,Diffusion Coefficient,"0.4µM FtsA alone, replicate Exp.4",1.05E-01
same,Diffusion Coefficient,"0.4µM FtsA alone, replicate Exp.5",1.05E-01
